Source: patent publication US20200282035A1 (MILTENYI BIOTEC B V, published 2020)

T1: TSPAN8 (human, UniProt P19075 1-237)
T1 construct: whole, on cells
T1 sequence (looked up): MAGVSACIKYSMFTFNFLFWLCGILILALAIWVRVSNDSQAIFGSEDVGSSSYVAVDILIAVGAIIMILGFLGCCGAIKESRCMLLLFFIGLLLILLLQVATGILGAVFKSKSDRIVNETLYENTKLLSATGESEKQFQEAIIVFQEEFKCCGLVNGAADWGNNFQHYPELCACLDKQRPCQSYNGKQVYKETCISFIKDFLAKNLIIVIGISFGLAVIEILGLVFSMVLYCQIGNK

T2: CD318 (human, UniProt Q9H5V8 30-836)
T2 construct: whole, on cells
T2 sequence (looked up): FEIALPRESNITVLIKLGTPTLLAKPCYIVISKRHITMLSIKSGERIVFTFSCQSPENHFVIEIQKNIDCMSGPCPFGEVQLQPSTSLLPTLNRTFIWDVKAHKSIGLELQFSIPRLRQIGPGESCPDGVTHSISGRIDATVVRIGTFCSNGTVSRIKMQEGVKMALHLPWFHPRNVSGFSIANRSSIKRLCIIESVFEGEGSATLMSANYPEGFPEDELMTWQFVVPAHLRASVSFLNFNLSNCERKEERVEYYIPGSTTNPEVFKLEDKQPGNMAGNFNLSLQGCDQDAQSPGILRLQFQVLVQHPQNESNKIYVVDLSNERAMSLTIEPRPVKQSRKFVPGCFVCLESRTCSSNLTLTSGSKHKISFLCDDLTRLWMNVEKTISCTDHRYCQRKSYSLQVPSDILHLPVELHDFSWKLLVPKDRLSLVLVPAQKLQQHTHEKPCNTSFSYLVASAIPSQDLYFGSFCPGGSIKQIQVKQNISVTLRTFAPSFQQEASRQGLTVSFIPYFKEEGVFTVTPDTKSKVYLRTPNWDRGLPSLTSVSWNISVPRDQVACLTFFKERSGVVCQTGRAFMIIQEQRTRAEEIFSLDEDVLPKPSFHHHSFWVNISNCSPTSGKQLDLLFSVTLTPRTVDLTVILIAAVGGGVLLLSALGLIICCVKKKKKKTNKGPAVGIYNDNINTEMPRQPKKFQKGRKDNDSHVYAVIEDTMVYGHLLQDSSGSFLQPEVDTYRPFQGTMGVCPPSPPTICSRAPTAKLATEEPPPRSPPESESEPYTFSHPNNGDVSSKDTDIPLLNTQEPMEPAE


How the values were obtained:
TSPAN8 = molecular target: T1, TSPAN8; experiment: antibody used for staining of human pancreatic cancer cells (flow cytometry, immunohistochemistry; Example 1); told in words only
CD318 = molecular target: T2, CD318; experiment: as above

binding result (TSPAN8) | binding result (CD318) | Binder
binds | – | TSPAN8 specific antibody (antibody, V domains shown, also called TSPAN8 VH) VH: EVKLLESGGGLVQPGGSMRLSCAASGFTFTDFYMNWIRQPAGKAPEWLGFIRNKASGYTTEYNPSVKGRFTISRDNTQNMLYLQMNTLRAEDTATYYCARAHSYYGYDYFDYWGQGVMVTVSS VL: DIQMTQSPASLSASLEEIVTITCQASQDIGNWLSWYQQKPGKSPQLLIYGATSLADGVPSRFSGSRSGTQYSLKISRLQVEDIRIYYCLQAYSAPWTFGGGTKLELK
– | binds | CD318 specific antibody (antibody, V domains shown, also called CD318 VH) VH: EVQLQQSGAELVRPGALVKLSCKASGFNIKDYYIHWVKQRPEQGLEWIGWIDPENGHTIYDPKFQGKASITADTSSNTAYLQLSSLTSEDTAVYYCARLTGTTYAMDYWGQGTSVTVSS VL: DIVMTQSHKFMSTSVGDRVSITCKASQDVSTAVAWYQQKSGQSPKLLIYWASTRHTGVPDRFTGSGSGTDYTLTISSVQAEDLALYYCQQHYSTPYTFGGGTKLEIK
